Results taken from the supplement of paper PMC9170038.

Tested on: MS2 coat protein
Test: apparent KD of MS2 coat protein; designed switch direction (-1 OFF switch, 1 ON switch): 1; higher = weaker reporter binding
In short: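 Designed RNA switches were transcribed on Illumina chips by stalled E. coli RNA polymerase and titrated with SNAP-549-labelled MS2 coat protein from 0.7 or 1.5 nM, doubling to 3 µM. Step length ran from 0.8–1.5 h at the lowest concentration to 10–20 min at the highest. The apparent KD is the median over clusters for each design, from curve-fitted normalised cluster fluorescence.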

[1] = Eterna round: R95, input ligand: FMN 200 uM
[2] = Eterna round: R95, input ligand: microRNA oligo, concentration not stated
[3] = Eterna round: R95, input ligand: none
[4] = input ligand: microRNA oligo, concentration not stated

AGUCCAGCCUAAGCUGGACAAAAGCAUGUACAUGAGGAUCACCCAUGUUCAUGUACAAGCUUUUUGCUCGUCUUAAU [Mat - hsa-mir-208a - Mod of JL - 60] (puzzle: Sensor for hsa-mir-208a)
apparent KD of MS2 coat protein [1]: 608 nM
apparent KD of MS2 coat protein [2]: 18.1 nM
apparent KD of MS2 coat protein [3]: 697 nM

AGUCCAGCCUGAGCUGGACAAAAGCAUGUACAUGAGGAUCACCCAUGUCAUGUACAAGUUUUUUGCUCGUUUUAAUA [Zipper 49 - 18] (puzzle: Sensor for hsa-mir-208a)
apparent KD of MS2 coat protein [1]: 48.9 nM
apparent KD of MS2 coat protein [2]: 12.2 nM
apparent KD of MS2 coat protein [3]: 52 nM

AGUCCAGCCUGAGCUGGACAAAAGCAUGUACAUGAGGAUCACCCAUGUCAUGUAUAAGCUUUUUGCUCGUCUUAAUA [Zipper 49 - 11] (puzzle: Sensor for hsa-mir-208a)
apparent KD of MS2 coat protein [1]: 24 nM
apparent KD of MS2 coat protein [2]: 11 nM
apparent KD of MS2 coat protein [3]: 21.3 nM

AGUCCAGCCUGAGCUGGACAAAAGCAUGUACAUGAGGAUCACCCAUGUCAUGUAUAAGCUUUUUGCUCGUUUUAAUA [Zipper 49 - 16] (puzzle: Sensor for hsa-mir-208a)
apparent KD of MS2 coat protein [1]: 19.9 nM
apparent KD of MS2 coat protein [2]: 10.7 nM
apparent KD of MS2 coat protein [3]: 19 nM

AGUCCAGCCUGAGCUGGACAAAAGCAUGUACAUGAGGAUCACCCAUGUUCAUGUACAAGCUUUUUGCUCGUCUUACA [salish99_208a_r3_076] (puzzle: Sensor for hsa-mir-208a)
apparent KD of MS2 coat protein [1]: 467 nM
apparent KD of MS2 coat protein [2]: 14.4 nM
apparent KD of MS2 coat protein [3]: 483 nM

AGUCCAGCCUGAGCUGGACAAAAGCAUGUACAUGAGGAUCACCCAUGUUCAUGUACAAGCUUUUUGCUCGUCUUGCC [salish99_208a_r3_107x] (Eterna round: R96, puzzle: Sensor for hsa-mir-208a)
apparent KD of MS2 coat protein (input ligand: FMN 200 uM): 774 nM
apparent KD of MS2 coat protein [4]: 15.5 nM
apparent KD of MS2 coat protein (input ligand: none): 623 nM

AGUCCAGCCUGAGCUGGACAAAAGCAUGUACAUGAGGAUCACCCAUGUUCAUGUACAAGCUUUUUGCUCGUCUUGCC [salish99_208a_r3_107x] (puzzle: Sensor for hsa-mir-208a)
apparent KD of MS2 coat protein [1]: 634 nM
apparent KD of MS2 coat protein [2]: 15.9 nM
apparent KD of MS2 coat protein [3]: 1130 nM

AGUCCAGCCUGAGCUGGACAAAUGCAAGUACAUGAGGAUCACCCAUGUUCAUGUACAAGCUUUUUGCUCGUCUUAAA [JL zipper 59] (Eterna round: R96, puzzle: Sensor for hsa-mir-208a)
apparent KD of MS2 coat protein (input ligand: FMN 200 uM): 853 nM
apparent KD of MS2 coat protein [4]: 21.3 nM
apparent KD of MS2 coat protein (input ligand: none): 931 nM

AGUCCAGCCUGAGCUGGACAAUAGCAUGUACAUGAGGAUCACCCAUGUCAUGUACAAGCUUUUUGCUCGUCUUAAAA [JL zipper 48] (Eterna round: R96, puzzle: Sensor for hsa-mir-208a)
apparent KD of MS2 coat protein (input ligand: FMN 200 uM): 163 nM
apparent KD of MS2 coat protein [4]: 12.4 nM
apparent KD of MS2 coat protein (input ligand: none): 159 nM

AGUCCAGCGAAAGCUGGACAAAAGCAUGUACAUGAGGAUCACCCAUGUUCAUGUACAAGCUUUUUGCUCGUUUUAAA [JL mod - D95 - 15] (puzzle: Sensor for hsa-mir-208a)
apparent KD of MS2 coat protein [1]: 590 nM
apparent KD of MS2 coat protein [2]: 13.5 nM
apparent KD of MS2 coat protein [3]: 643 nM

AUAAAACAUGAGGAUCACCCAUGUCAACAAAGUCGAGGAUAUGGGCAAAGAAAAUAAUAACCAGAAGGCGAAUAAU [salish99_ss1_r3_054] (puzzle: Same State 1)
apparent KD of MS2 coat protein [1]: 42.6 nM
apparent KD of MS2 coat protein [2]: 389 nM
apparent KD of MS2 coat protein [3]: 445 nM

AUAAAACAUGAGGAUCACCCAUGUCAACAAAGUCGAGGAUAUGGGCAAAUAAAAUAAGAACCAGAAGGCGAAUAAU [Teenbexe] (Eterna round: R96, puzzle: Same State 1)
apparent KD of MS2 coat protein (input ligand: FMN 200 uM): 42.1 nM
apparent KD of MS2 coat protein [4]: 207 nM
apparent KD of MS2 coat protein (input ligand: none): 273 nM

AUAAAACAUGAGGAUCACCCAUGUCAACAAAGUCGAGGAUAUGGGCAAAUAAAAUAAGAACCAGAAGGCGAAUAAU [salish99_SS1_r3_001] (puzzle: Same State 1)
apparent KD of MS2 coat protein [2]: 233 nM

AUAAAACAUGAGGAUCACCCAUGUCAACAAAGUCGAGGAUAUGGGCAAAUAAAAUAAGAACCAGAAGGCGAAUUAU [salish99_ss1_r3_036] (Eterna round: R96, puzzle: Same State 1)
apparent KD of MS2 coat protein (input ligand: FMN 200 uM): 36.8 nM
apparent KD of MS2 coat protein [4]: 185 nM
apparent KD of MS2 coat protein (input ligand: none): 247 nM

AUAAAACAUGAGGAUCACCCAUGUCAACAAAGUCGAGGAUAUGGGCAAAUAAAAUAAGAACCAGAAGGCGAAUUAU [salish99_ss1_r3_036] (puzzle: Same State 1)
apparent KD of MS2 coat protein [1]: 31.6 nM
apparent KD of MS2 coat protein [2]: 423 nM
apparent KD of MS2 coat protein [3]: 1140 nM

AUAAAACAUGAGGAUCACCCAUGUCAACAAAGUCGAGGAUAUGGGCAAAUAAAAUAAGAACUAGAAGGCGAAUAAU [salish99_ss1_r3_031] (puzzle: Same State 1)
apparent KD of MS2 coat protein [1]: 374 nM
apparent KD of MS2 coat protein [2]: 1770 nM
apparent KD of MS2 coat protein [3]: 139 nM
